Here are results for three substances from paper PMC12678272.

Test [1] deals with GST-RILP-L1 (RILP-Like 1, mouse) (mouse) (UniProt Q9JJC6). The test is described as follows: pull-down; 20 ug GST fusion protein immobilised on glutathione agarose beads, incubated 18 h at 4 C with 500 ug RAW264.7 macrophage lysate (untreated or treated with GSK2578215A); 50 mM HEPES pH 7.4, 150 mM NaCl, 1 mM MgCl2, 1% Triton X-100, phosphatase inhibitors; immunoblot, quantified as percent of total input. In general terms: A western blot detects proteins with antibodies after separation by electrophoresis.
Chain of UniProt Q9JJC6 (Q9JJC6 whole entry, the tested form may be a part): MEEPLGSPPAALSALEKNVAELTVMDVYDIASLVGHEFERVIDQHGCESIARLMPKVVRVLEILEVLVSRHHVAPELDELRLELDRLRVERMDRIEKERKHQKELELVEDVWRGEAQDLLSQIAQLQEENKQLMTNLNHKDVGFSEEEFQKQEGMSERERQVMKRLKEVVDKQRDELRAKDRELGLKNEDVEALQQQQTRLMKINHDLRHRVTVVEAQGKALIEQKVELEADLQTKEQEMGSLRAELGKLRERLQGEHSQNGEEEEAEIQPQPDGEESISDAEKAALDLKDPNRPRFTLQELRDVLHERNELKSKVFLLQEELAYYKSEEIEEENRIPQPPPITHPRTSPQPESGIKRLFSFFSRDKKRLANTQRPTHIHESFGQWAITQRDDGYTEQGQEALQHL

The target in test [2] is GST-RILP-L2 (RILP-Like 2, mouse) (mouse) (UniProt Q99LE1). The test is described as above.
Chain of UniProt Q99LE1 (Q99LE1 whole entry, the tested form may be a part): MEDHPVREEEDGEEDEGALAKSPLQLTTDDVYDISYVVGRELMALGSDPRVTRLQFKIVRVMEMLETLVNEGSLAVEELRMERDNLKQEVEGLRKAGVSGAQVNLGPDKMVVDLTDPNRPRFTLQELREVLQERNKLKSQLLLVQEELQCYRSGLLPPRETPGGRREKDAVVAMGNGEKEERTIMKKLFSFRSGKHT
Test [3] deals with GST-RILP-L1 (RILP-Like 1, mouse) (mouse) (UniProt Q9JJC6). The test is described as follows: pull-down; 20 ug GST fusion protein immobilised on glutathione agarose beads, incubated 18 h at 4 C with 500 ug RBL cell lysate (untreated, Ion/TPA-activated, or Ion/TPA with LY333531); 50 mM HEPES pH 7.4, 150 mM NaCl, 1 mM MgCl2, 1% Triton X-100, phosphatase inhibitors; immunoblot, quantified as percent of total input.

Test [4] deals with GST-RILP-L2 (RILP-Like 2, mouse) (mouse) (UniProt Q99LE1). The description is as above.

As for “Rab12 (endogenous, RAW264.7 macrophages) (from UniProt P35283 1-291) (natural protein)”, the percent reduction of pull-down after GSK2578215A, against untreated cells in test [1] came to 50%; in test [2] it was 80%.

As to “Rab12 (endogenous, RBL-2H3 cells) (from UniProt P35284 1-291) (natural protein)”, in test [3], the percent of total input pulled down was 14% and the percent reduction of pull-down after LY333531, against Ion/TPA alone was 60%. Moreover, in test [4], the percent of total input pulled down is 4% and the percent reduction of pull-down after LY333531, against Ion/TPA alone was 90%.

For the substance “phosphoRab12 (endogenous, Ion/TPA-activated RBL-2H3 cells) (from UniProt P35284 1-291) (natural protein)”, the percent of total input pulled down in test [3] is 38%; in test [4], 18%.
